From article PMC2861611 (Molecular Biology of the Cell, 2010)

Biological target: T1, GST-PDZK1 tail (human, UniProt Q5T2W1 459-519)
T1 sequence (looked up): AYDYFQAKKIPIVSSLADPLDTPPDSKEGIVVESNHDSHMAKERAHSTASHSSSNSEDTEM
Experiment: pull-down

amount precipitated relative to full-length EBP50 (1-358): 2.4 times
B1: EBP50 (1-354) (domain or fragment, UniProt O14745 1-354, looked up)
chain: MSADAAAGAPLPRLCCLEKGPNGYGFHLHGEKGKLGQYIRLVEPGSPAEKAGLLAGDRLVEVNGENVEKETHQQVVSRIRAALNAVRLLVVDPETDEQLQKLGVQVREELLRAQEAPGQAEPPAAAEVQGAGNENEPREADKSHPEQRELRPRLCTMKKGPSGYGFNLHSDKSKPGQFIRSVDPDSPAEASGLRAQDRIVEVNGVCMEGKQHGDVVSAIRAGGDETKLLVVDRETDEFFKKCRVIPSQEHLNGPLPVPFTNGEIQKENSREALAEAALESPRPALVRSASSDTSEELNSQDSPPKQDSTAPSSTSSSDPILDFNISLAMAKERAHQKRSSKRAPQMDWSKKNEL
